According to the DeepSol protein solubility set:

Assay: soluble on expression in E. coli; label from the status in PepcDB or PDB records

Soluble on expression in E. coli, not soluble:
MGSDKIHHHHHHMSNVISVENLGKKYLISHQGREPYTALRDVLTDGARAFYRRLFSPGTSQADAQAEEFWALKDVSFEVKQGDRIGIIGRNGAGKSTLLKILSRITEPTEGRVRIRGRVASLLEVGTGFHPELTGRENIFLNGAILGMNRAEIARKFDEIVAFAEIEKFLDTPVKRYSSGMYVRLAFAVAAHLEPEILIVDEVLAVGDAQFQNKCLGKMEDVSTKEGRTVLFVSHNMGAIDRLCTRAVLLERGRVRLADFTKPVIQMYLDKAKNAISAWSCSTSIPDFDGIFFESISIVNKDRKIAEVLPSNEPFSITLVVNATASLKGVQIAIRITNEQGIPILTTTNCDKAGKLQEISRGRYRYTVSLPASFLPPGYYTLIVASFVPGEKLFDGVEDKLGFCIDDMGSLATLMKDGRLGVVTPLMPWDEVRL
MGSDKIHHHHHHMSPEPNGDAVSIILETEGPMTAAPKTVRSVERTLQILELMNRAAVVRVQYLAEQIGLPAPTVVRLLETLVAAGYVRKIGRQAGYCVTEKVAALGAGHHGLPQVFDVAREAAEDLTRRTLWPTALATLDVDALVIRFSTIPMSPLSHYQSTINRRMTLLDYAHGRAYLGFCPTEERQHLVALLQQTAGSVEEARAIGERAQSVVALTRASGFGERTGNIQPETHSLALPLRMGAKLVGTLGITYFAKAKVDVSALKSDLRAAAEACTSGTAYRAPASSG
MGSDKIHHHHHHMSQAIPSSRVGVKINEWYKMIRQFSVPDAEILKAEVEQDIQQMEEDQDLLIYYSLMCFRHQLMLDYLEPGKTYGNRPTVTELLETIETPQKKLTGLLKYYSLFFRGMYEFDQKEYVEAIGYYREAEKELPFVSDDIEKAEFHFKVAEAYYHMKQTHVSMYHILQALDIYQNHPLYSIRTIQSLFVIAGNYDDFKHYDKALPHLEAALELAMDIQNDRFIAISLLNIANSYDRSGDDQMAVEHFQKAAKVSREKVPDLLPKVLFGLSWTLCKAGQTQKAFQFIEEGLDHITARSHKFYKELFLFLQAVYKETVDERKIHDLLSYFEKKNLHAYIEACARSAAAVFESSCHFEQAAAFYRKVLKAQEDILKGRVFICLLRKKVMMCLAVTLVFGSMSFPTLTNSGGFKESTDRNTTYIDHSPYKLSDQKKALS
MGSDKIHHHHHHMSQFEQDAHLKQQSDRALSDHELQADHTRQKTHELPAHFDFQQAGKQVLSIERDGLAQLDQYIDDNFTLACKNIFHCKGKVVVMGMGKSGHIGCKIAATFASTGTPAFFVHPGEASHGDLGMVTPHDIVIAISNSGESHEILSLIPVLKRQKVFLICMTSAPESTMGKAADIHLCVHVPQEACPLGLAPTTSTTATLVMGDALAVALLQARGFTAEDFALSHPGGALGRKLLLRVSDIMHSGDEIPHVPHDASLRDALVEITRKNLGMTVICEADMKIQGIFTDGDLRRIFDMNIDLNSARIADVMTAGGIRVAPQTLAVDALNLMQSRHITSVLVAENDRLVGIVHMHDMLRAGVV
MGSDKIHHHHHHMSQHVLIAGGGIVGCLTAMELVSRGCRVTIVERNNIASQTSGESSWAGTGIMFPLLPWMYSDHVNTLTHYGASLYPDICARLFKETGIDPQMLDSGFLLLPPFDREAALTWCARYQVKAEDTKAAGFGVQSPNGQDALWLPDVKQVRPPCLMHALRTWLENHHVRLLERTELMPLSPGTSRLTAWATTSGELLEADRFIVTSGAWSFELLKEVASKLQIKPMRGQILLYKPEHNPRAVIFREDFYLVPRRDGYLLAGSTLEDVGFDPSVTDTVRDAIRAKAAALMPELADLPILKHWSGLRPGTPENLPIISPHPGIENLYLNTGHFRYGLTMGPASASLAAALVCGETPWTDPTPFSLPQ
MGSDKIHHHHHHMSQIPVAEKLVGALSSGLAVLRYLAGMPTPVGVTRVARDLELNSSTCFNLLKTLVHEGLVTFDERTKTYTIGIGLVELAKGALDQASFARLLRPQLESIAQQHKVTATLWERTRNERVVLVDLADNPAAMRVHMSIGQRLPMYLAALGRCMAAYSELSADELRTRIESFRWENAPSFEEYYAEVQDVKERGYAVDNGNYVKGVTTVSAPVIDANKRAVMAISAVSFSAQLNRAAIRALGEDLGARAIEASRAISGRVRAA
MGSDKIHHHHHHMSQRENPQNSSQDVADLLGGAFAGHTMQRLRTPDGKYRYSYVSSGVQASFGLDPEALMQLQDVDHSWLHPADRSLFIAALEQSAAALTRLDEEVRVSLDDGTFKWVRSIGNPRRMRDGTVIWDGVALDVTDRHEASEALERTLTQVRQNETSEGRFSYIAASDVLDRLSSLRAAVEQLDLSVPTAAHVHAVFQKFERGLFAARDLLDDTALDETRPTDHEPHKDISATLTPRQQDILGHVSRGATNRDIARAMDISEGTVKLHISAILKRTGAQNRTEAALAWTSSNGTPRR
MGSDKIHHHHHHMSRAHVDHRDLVRFAEERVNLPKEKADEFRAQARRLREKLEGYLAEHPDFALKKMLLSGSLAKGTALRSLNDIDVAVYISGSDAPHDLQALLNYLAEKLRKAFPNFSPEQVQPQTYSVTVNFRGTGLNVDVVPVLYAGLPDWRGNLISQDDGSFLETSIPLHLECARKRKQAQPTHFAQVVRLIKYWARRMKQEHDGFRFKSFMIEMILAKLTDNGTDLSDYPEALQSFFTYVAESNLSERIVFEDYYQASTVAPSADRVQIIDPINASNNVARLYTAQNAAAIVDAALDAGDAIDAALKAPTKELTVHYWQKVFGSSFQG
MGSDKIHHHHHHMSRDLPPLNALRAFESTARFGSVSQAAEQLSVTHGAVSRQLKVLEEHLGVSLFSKDGRGLKLTDAGIRLRDASADAFDRLRSVCAELSKGSVDAPFVLGCSGSLLARWFIPRLSRLNAELPDLRLHLSAGEGDLDPRRPGLDALLVFAEPPWPADMQVFELASERIGPVLSPRFARFESMRDAPANALLEESLLQTTSRPQAWPSWAQQNGIDPDALRYGQGFEHLYYLLEAAVAGLGIAIAPEPLVIDDLKAGRLAAPWGFSETPAQLALWVPRRAADGRARQLAQWLKNELKRSGDPIRN
MGSDKIHHHHHHMSSDSRDLARSATAWPFQEARALLDERLKGKAPDKGYVLFETGYGPSGLPHIGTFGEVARTTMVRRAFSLLAPEIPTRLFAFSDDMDGLRKVPDNIPNKEMVAKHLGKPLTRIPDPFGTHESFGHHNNARLCSFLDTFGFEYEFQSATDWYKSGRFDAALLGVLKHYDEVINVVLPTLGDERRATYSPFLPVCPDTGIVLQVPVVERNVEAGTIVYKREDGKLIETPVTGGACKLQWKADWGMRWVALGVDYEMSGKDLIPSVQLSTRIATILGGRAPLNLTYELFLDDQGQKISKSKGNGLAVEDWLKYAPQESLALFMYQKPKTAKRLYFDVIPRAVDEYLAYLGKFPSEEPGKKLDNPVWHIHGGKPPAEDAHLSFNILMNLVSVCHSDDPAVIWGFIKRYAPGAAPETAPILNGLVGYAIAYFKDFVKPNMKYRKATPDEVEAFTALKDGLLALPADASVDDIQNLVYAIGKRPCFGELKAWFKACYEVLLGNDQGPRMGSFIKLFGIAETIALLDKAIAGEDM
MGSDKIHHHHHHMSSICQGTWDCQNCPKAVDNAIAHIIHPRGYHQPARKCEENFILFLIRGEVLVNSQEYAGTMLRAGEFILQAIGSKFEMLAMTECECIYYRFIQPELFCDFRFNHIMKEVSSPLIYSPLKIIPELKYFLDGSKSYLSESKVCRDLLSLKRKELAFVLGYYYSDYDLASLVHPLSKYTSTFQYFILQNYKKVKTVEELAQLGGYTVSTLRRIFNNVFHEPVYEWMQARRKEGILDELLNTNNSISEICYKYGFESLPHFSNFCKKFFGASPRMLRTNKKTI
MGSDKIHHHHHHMSSQTTALNSGVHAKKADIFCQDEARVDWHSKALWVLREKRDRAAASLPEWEQLRQLGSEMKLHTLTHLGEYLETFEKNCQANGIVVHWAKDGAEHNQIVHNILAKHQVKKLVKSKSMLTEECHLNPYLESKGIEVIDTDLGERIIQLAKQPPSHIVVPAIHLKKEEVGDLFHDKLGTEAGASDPLYLTRAARAHLREQFLSADAAMTGVNMAIADKGAVVVCTNEGNADMGANLPKLQLHSMGIDKIVPDLDSAAILLRTLARNATGQPITTYSSFYRGPQDGGEMHVIIVDNGRTDMLQDKILAESLKCIRCGGCLNTCPVYRRSGGYSYNYTIPGPIGIAVGAQADDTHSIPWACTLCGSCSYVCPTKVPLDKIIHHHRRLKAKAGKLPYGKRNYMPLVGNFMASETMLNCSMSVARTALRILPGSLLKPFSGAWGKYRELPVAPKSSFEAWFNKNRGQ
MGSDKIHHHHHHMSSSDNILERLLFTIHKRLVSIPIAPNLRKNVAPIVNDWPSRPEKNTRPSTTVHLPAVDYLEQALKIGETSGDREICPMIRLLAPELSWNFDYAPHPAFPYLDEKVAFTQFVGPNDLWVSSHLAIGLTLIAPETHYPAHCHPATEIYLPLAGTGSWSMGNYYYFPRKPGELIFHPSGITHATQAQEEPMLALYIWHGDICSPSEWLPDECE
MGSDKIHHHHHHMSTARLVLLGGFLGAGKTTTMIKSALKLEKEGYRVAIVTNDQGKELIDTELARANGLESKEVTGGCFCCQFDDLYNNLNTLMKEKQPDVIIAEAVGSCTDLAATVIQPLKQYYADKFKTAPLTIVVEPARLLHELNLDENTKPFFSQSVSYIFEKQLAEADIIALNKVDRYSEEEIAKLKAYLQQRYPQTIIQTFSAERGDNLEALTHTWLTTDLGGDKVLDIDYELYAEGEAQLAWMNILGDIKAEQDINPREWAEKLLDNLNKHFIREKMAIAHLKVHVGFEGGYVKASMVQTGDAPTFTVENVKEGKEFRIVLNIRIEATPAILNLVVADSIGAINKELGSNWSETYNECFSPLPPKPVHRLYETV
MGSDKIHHHHHHMSTELRRVTYGNHGVARLTPAPDKPGTYMGMPKFSKAVKGELNLSVQRKNMRNATMTIRNKRAMRVSESPDWQDLRDAAESIKNRVGRHLDHYLVEAEKNLTANGVHVHWARDGEEANRIVAQIAKDKGVDEVVKIKSITSQETDLNEYLEEQGIAAWETDLAELIVQLGHDRPSHIVVPAIHRNRAEVREIFLHEMKNYGRPAPEDISENPPELTNAARLHLREKFLRAEMAVSGGNFVLADTGSLVIVESEGNGRMCLTLPDTLVSIVGIEKVLPSFDDLEVFLKLLPRSATGERMNPYNSVWSGVTDGDGPQEQHVIFLDNGRTDVLADTLGREVLRCIRCASCINICPVYERAGGHAYGSVYPGPIGAVLNPQLRGVEHPVDRGLPYACSLCGACNEVCPVKIPFTDILLKLRNKVVKSEKADRIPQDYEVAGEMGLMKTASWAFSDHKHFEAIQVGSRGVGRVLRGKKMGPVPVPVAERWLKYRDVDAPPADTFRTWWKKNREAQR
MGSDKIHHHHHHMSTNHGANLYSLSSKYGFSKEEFMDFSSNINPFGTSSLAKQYIVNNIDMVSMYPDPDYIDLKTSISNYCKCSIDNIVLGSGATELISSFIHTINPKQALLLSPAYSEYEKELSKINCSIEKYFAKEEDNFHINLENLIKTINAKDYDLVVICNPSNPTGFAFTKVEVREILKNTDSFLMIDETYVEFTDTDTYSCTQLVDDYSNLFVIRGTSKFFSTPGIRLGYGLISNTNVKNEINKNLDLWNINIIASKMGEIMFSDLDFISNTISLMNTERDYLLKELKNIKSLDIYNTKGNFILCKIKTKELTAKSLREQLLPQKIIIRDCCSFKGLDEYFFRVCILKPNENKLLISSLKSIFK
MGSDKIHHHHHHMSTRMVTLHGRIVLRASIELLTGLHIGGAAGGLEIGGLDKPVIRNPITNQPYIPGSSLKGKLRSLMEKVYGAPQTFRINEGVFIHVPTNPEEYQRYYQIAGVFGTLPNHKQLTIDVPTRLIVRDVPLTRESEQELRRLRTDLPYTEIKWEAAIDRVTSAAAPRQIERVPAGAVFGPAEVVYSLYVGNGEQLSDVIRLFGSVYEAFTYLEDDYLGGMGSRGNGQVRLRDITVLARRLESGRYGELTTIREAKELRELDRNGLLEELQRFFNPA
